In test [1] the target is T1, human activated protein C (human, UniProt P04070 43-197; P04070 212-461).
T1 construct: also called human aPC; human APC
Put plainly: ELISA, coated antigen.

Test [2] has as its target T2, cyno activated protein C (cyno (monkey)).
T2 construct: also called cyno aPC; cyno APC
Put plainly: ELISA, coated antigen. (In general: ELISA stands for enzyme-linked immunosorbent assay.)

Test [3] addresses T3, human Protein C (human, UniProt P04070 43-461).
T3 construct: Zymogen used as negative control in the ELISA; also called human PC; hPC
Put plainly: ELISA, coated antigen.

In test [4] the target is T1, human activated protein C. Put plainly: SPR (Biacore).
Test [5] concerns the target T1, human activated protein C. Put plainly: SPR (Biacore), 1:1 binding model.
Test [6] addresses T2, cyno activated protein C. Put plainly: SPR (Biacore), 1:1 binding model. Background: SPR reads the build-up and loss of mass on a sensor chip optically.

Some results are limits rather than exact numbers.

B1: Hu1573-5 (antibody, V domains shown)
VH: EVQLVESGGGLVQPGGSLRLSCAASGFTFSNYYLNWVRQAPGKGLEWVGDIRLKSNNYEKHYAESVKGRFTISRDDSKNSVYLQMNSLKTEDTAVYYCIREGDYFDYWGQGTTVTVSS
VL: DIVMTQTPLSLSVTPGQPASISCRASESVDSFGATFMHWYLQKPGQPPQLLIYLASNLESGVPDRFSGSGSRTDFTLKISRVEAEDVGVYYCQQNNEDPYTFGQGTKLEIKR
notes: Humanized IgG, human gamma 1 / kappa constant regions by vectors pCP-hCg1 and pCP-hck; also called H1573VH.1B + H1573Vk.2B
By EC50 is commonly meant the concentration at which the effect is half-maximal. Higher therefore signals a need for much substance. What is called Kd is the equilibrium constant for the complex coming apart. A high value points to lower affinity. As usually defined, the koff is the first-order rate constant of dissociation. In general, kon refers to the second-order rate constant of association. The low end stands for slower complex formation, the high end for faster complex formation. In the case of B1, the results for the EC50 in test [1] and in test [2] were 0.552 nM and 1.03 nM, respectively. Moreover, the binding result in test [3] was “no binding (tested: 20 nM)”. Moreover, the figures for the Kd in test [4], in test [5] and in test [6] were less than 5 nM, 4.16 nM and 14.5 nM, respectively. The values for the koff in test [5] and in test [6] were 0.0064 s⁻¹ and 0.00293 s⁻¹, respectively. Also, the kon was found to be 1.54e+06 M⁻¹ s⁻¹ in test [5] and 202000 M⁻¹ s⁻¹ in test [6].

B2: Hu1573-8 (antibody, V domains shown)
VH: EVQLVESGGGLVQPGGSLRLSCAASGFTFSNYYLNWVRQAPGKGLEWVADIRLKSNNYEKHYAESVKGRFTISRDDSKNSLYLQMNSLKTEDTAVYYCIREGDYFDYWGQGTTVTVSS
VL: DIVMTQTPLSLSVTPGQPASISCRASESVDSFGATFMHWYLQKPGQPPQLLIYLASNLESGVPDRFSGSGSRTDFTLKISRVEAEDVGVYYCQQNNEDPYTFGQGTKLEIKR
notes: Humanized IgG, human gamma 1 / kappa constant regions by vectors pCP-hCg1 and pCP-hck; also called H1573VH.1C + H1573Vk.2B
As for B2, the values for the EC50 in test [1] and in test [2] were 0.697 nM and 0.713 nM, respectively. Further, the binding result in test [3] is “no binding (tested: 20 nM)”. Besides, the Kd was less than 5 nM in test [4], 4.03 nM in test [5] and 12.3 nM in test [6]. The koff in test [5] came to 0.006 s⁻¹; in test [6], 0.00447 s⁻¹. Moreover, the kon in test [5] was determined as 1.49e+06 M⁻¹ s⁻¹; in test [6], 363000 M⁻¹ s⁻¹.

B3: Hu1573-10 (antibody, V domains shown)
VH: EVQLVESGGGLVQPGGSLRLSCAASGFTFSNYYLNWVRQAPGKGLEWVGDIRLKSNNYEKHYAESVKGRFTISRDDSKSSLYLQMNSLKTEDTAVYYCIREGDYFDYWGQGTTVTVSS
VL: DIVLTQTPLSLSVTPGQPASISCRASESVDSFGATFMHWYLQKPGQPPQLLIYLASNLESGVPDRFSGSGSGTDFTLKISRVEAEDVGVYYCQQNNEDPYTFGQGTKLEIKR
notes: Humanized IgG, human gamma 1 / kappa constant regions by vectors pCP-hCg1 and pCP-hck; also called H1573VH.1D + H1573Vk.2A
For B3, the results for the EC50 in test [1] and in test [2] were 0.575 nM and 0.68 nM, respectively. Also, the binding result in test [3] is given as “no binding (tested: 20 nM)”. In addition, the Kd in test [4] is less than 5 nM; in test [5], 4.38 nM; in test [6], 11 nM. The results for the koff in test [5] and in test [6] were 0.00636 s⁻¹ and 0.00479 s⁻¹, respectively. Further, the kon stood at 1.45e+06 M⁻¹ s⁻¹ in test [5] and 434000 M⁻¹ s⁻¹ in test [6].

The record behind these values is patent USRE49099 (Bayer, dated 2022).
